4 molecules from patent EP3984547A1 (Universitat Pompeu Fabra, dated 2022) can be followed below.

The target in test [1] is T1, TWEAK (Peprotech EC, Ltd, U.K.) (UniProt O43508 94-249, limits assumed).
T1 sequence (looked up): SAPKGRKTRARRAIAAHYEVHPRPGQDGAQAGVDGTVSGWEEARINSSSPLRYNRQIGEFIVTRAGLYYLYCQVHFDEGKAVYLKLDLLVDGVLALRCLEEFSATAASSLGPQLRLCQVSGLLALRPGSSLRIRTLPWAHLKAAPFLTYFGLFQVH
In words: cell-based or functional assay.

In test [2] the target is T2, Histidine-tagged human TWEAK (His6-TWEAK) protein (R&D Systems) (human, UniProt O43508 93-249, limits assumed).
T2 construct: Bought protein, captured through the His6 tag on an NTA chip and then coupled covalently by amine coupling; also called human His6-TWEAK protein; histidine-tagged TWEAK; not shown: His6 tag
T2 sequence (looked up): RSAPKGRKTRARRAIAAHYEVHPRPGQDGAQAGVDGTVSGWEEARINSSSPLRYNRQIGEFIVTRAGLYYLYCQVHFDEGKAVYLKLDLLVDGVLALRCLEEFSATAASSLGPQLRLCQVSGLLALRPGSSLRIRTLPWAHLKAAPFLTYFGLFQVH
In words: SPR (Biacore 3000), His6-TWEAK immobilized on NTA chip, peptide as analyte, 1:1 Langmuir fit.

The Kd is the equilibrium constant for the complex coming apart.

Where no end group is shown, it is not given here.

For SYTDVQDS-NH2 [Peptide 3: SYTDVQDS (SEQ ID NO: 3)], in test [1], the “BIRC2 normalized level of expression (Zscore vs NARS2), RT-PCR, cells with peptide at 450 µM” value is -0.115 Zscore; the “HSP90B1 normalized level of expression (Zscore vs NARS2), RT-PCR, cells with peptide at 450 µM” value is -0.468 Zscore; the “IL6 normalized level of expression (Zscore vs NARS2), RT-PCR, cells with peptide at 450 µM” value was -0.972 Zscore; the “JUN normalized level of expression (Zscore vs NARS2), RT-PCR, cells with peptide at 450 µM” value is -0.206 Zscore. Moreover, in test [1], the “MAP4K4 normalized level of expression (Zscore vs NARS2), RT-PCR, cells with peptide at 450 µM” value was -1.36 Zscore; the “MAPK14 normalized level of expression (Zscore vs NARS2), RT-PCR, cells with peptide at 450 µM” value was -0.585 Zscore; the “NFkB2 normalized level of expression (Zscore vs NARS2), RT-PCR, cells with peptide at 450 µM” value was -1.15 Zscore; the “TNFRSF12A normalized level of expression (Zscore vs NARS2), RT-PCR, cells with peptide at 450 µM” value was -1.08 Zscore. In addition, in test [1], the “TRAF2 normalized level of expression (Zscore vs NARS2), RT-PCR, cells with peptide at 450 µM” value was -0.577 Zscore.

DNGGGNTDIYSE-NH2 [Peptide 4: DNGGGNTDIYSE (SEQ ID NO: 4)]: in test [1], the “BIRC2 normalized level of expression (Zscore vs NARS2), RT-PCR, cells with peptide at 450 µM” value was -0.61 Zscore; the “HSP90B1 normalized level of expression (Zscore vs NARS2), RT-PCR, cells with peptide at 450 µM” value was -0.921 Zscore; the “IL6 normalized level of expression (Zscore vs NARS2), RT-PCR, cells with peptide at 450 µM” value was -0.045 Zscore; the “JUN normalized level of expression (Zscore vs NARS2), RT-PCR, cells with peptide at 450 µM” value was -0.509 Zscore. Besides, in test [1], the “MAP4K4 normalized level of expression (Zscore vs NARS2), RT-PCR, cells with peptide at 450 µM” value was -1.56 Zscore; the “MAPK14 normalized level of expression (Zscore vs NARS2), RT-PCR, cells with peptide at 450 µM” value is -1.11 Zscore; the “NFkB2 normalized level of expression (Zscore vs NARS2), RT-PCR, cells with peptide at 450 µM” value was -1.32 Zscore; the “TNFRSF12A normalized level of expression (Zscore vs NARS2), RT-PCR, cells with peptide at 450 µM” value was -1.11 Zscore. Moreover, in test [1], the “TRAF2 normalized level of expression (Zscore vs NARS2), RT-PCR, cells with peptide at 450 µM” value was -0.439 Zscore.

Turning to TTDGSTGDDLQA-NH2 [Peptide 2: TTDGSTGDDLQA (SEQ ID NO: 1)], in test [1], the “BIRC2 normalized level of expression (Zscore vs NARS2), RT-PCR, cells with peptide at 450 µM” value is -0.996 Zscore; the “HSP90B1 normalized level of expression (Zscore vs NARS2), RT-PCR, cells with peptide at 450 µM” value was -1.31 Zscore; the “IL6 normalized level of expression (Zscore vs NARS2), RT-PCR, cells with peptide at 450 µM” value is -0.535 Zscore; the “JUN normalized level of expression (Zscore vs NARS2), RT-PCR, cells with peptide at 450 µM” value is -0.488 Zscore. Further, in test [1], the “MAP4K4 normalized level of expression (Zscore vs NARS2), RT-PCR, cells with peptide at 450 µM” value is -1.13 Zscore; the “MAPK14 normalized level of expression (Zscore vs NARS2), RT-PCR, cells with peptide at 450 µM” value was -1.01 Zscore; the “NFkB2 normalized level of expression (Zscore vs NARS2), RT-PCR, cells with peptide at 450 µM” value was -1.21 Zscore; the “TNFRSF12A normalized level of expression (Zscore vs NARS2), RT-PCR, cells with peptide at 450 µM” value is -1.11 Zscore. Moreover, in test [1], the “TRAF2 normalized level of expression (Zscore vs NARS2), RT-PCR, cells with peptide at 450 µM” value is -0.409 Zscore. For the same molecule, in test [2], binding was put at a Kd of 170 µM.

Turning to SWYDHMAGDSSY-NH2 [Peptide 1: SWYDHMAGDSSY (SEQ ID NO: 2)], in test [1], the “BIRC2 normalized level of expression (Zscore vs NARS2), RT-PCR, cells with peptide at 450 µM” value is -0.747 Zscore; the “HSP90B1 normalized level of expression (Zscore vs NARS2), RT-PCR, cells with peptide at 450 µM” value was -1.1 Zscore; the “IL6 normalized level of expression (Zscore vs NARS2), RT-PCR, cells with peptide at 450 µM” value is 0.198 Zscore; the “JUN normalized level of expression (Zscore vs NARS2), RT-PCR, cells with peptide at 450 µM” value was -0.509 Zscore. Besides, in test [1], the “MAP4K4 normalized level of expression (Zscore vs NARS2), RT-PCR, cells with peptide at 450 µM” value was -1.7 Zscore; the “MAPK14 normalized level of expression (Zscore vs NARS2), RT-PCR, cells with peptide at 450 µM” value is -1.11 Zscore; the “NFkB2 normalized level of expression (Zscore vs NARS2), RT-PCR, cells with peptide at 450 µM” value was -1.51 Zscore; the “TNFRSF12A normalized level of expression (Zscore vs NARS2), RT-PCR, cells with peptide at 450 µM” value is -1.05 Zscore. For the same molecule, the “TRAF2 normalized level of expression (Zscore vs NARS2), RT-PCR, cells with peptide at 450 µM” value in test [1] was -0.548 Zscore.
